Laboratory results taken from the RNAGym collection of RNA variant scans (doi:10.7554/elife.80360).

B1: CPEB3 Ribozyme (parent)
chain: GGGGGCCACAGCAGAAGCGUUCACGUCGCGGCCCCUGUCAGAUUCUGGUGAAUCUGCGAAUUCUGCUGU

Variants of: B1
Assay: self-cleavage, relative activity (ratio to wild type); higher = more cleavage; co-transcriptional

Point of comparison: U26A C33U, self-cleavage 0.85. Against it:
- G25A U55A — lower, 0.222
- G25C U43A — lower, 0.139
- G25C U53A — lower, 0.125
- G25C C57U — lower, 0.143
- G25C C57G — lower, 0.141
- U26A C33A — lower, 0.682
- C24U U46G — higher, 0.879
- C24U U69C — higher, 1.02
- G25C G56C — lower, 0.164
- G25C G56U — lower, 0.256
- G25C G48C — lower, 0.147
- G25U G37U — lower, 0.103
- G25U G37A — lower, 0.156
- G25C G28C — lower, 0.153
- G25U C45G — lower, 0.133
- G25C U61A — lower, 0.193
- G25C U61C — lower, 0.0705
- G25A C35A — lower, 0.21
- U26A C39U — lower, 0.722
- U26A C39A — lower, 0.477
- U26A C39G — lower, 0.798
- G25U C66G — lower, 0.187
- G25U C66A — lower, 0.133
- G25C C29A — lower, 0.143
- G25C C27A — lower, 0.146
- G25C G65A — lower, 0.216
- G25U U64G — lower, 0.189
- G25A U46G — lower, 0.174
- G25A C57G — lower, 0.129
- G25U A42G — lower, 0.129
- G25A U49A — lower, 0.155
- G25C U26C — lower, 0.319
- G25C U26G — lower, 0.176
- G25C U26A — lower, 0.252
- C24U U49A — higher, 0.865
- C24U U49C — lower, 0.84
- G25C G50C — lower, 0.179
- G25C G37U — lower, 0.156
- G25U C63G — lower, 0.175
- G25A C32A — lower, 0.22
- G25A C54U — lower, 0.248
- G25U U62A — lower, 0.158
- G25U U62G — lower, 0.116
- C24U G65C — lower, 0.353
- G25C U46C — lower, 0.218
- C24U U55C — lower, 0.391
- C24U U55G — lower, 0.367
- C24U U55A — lower, 0.651
- G25C U49C — lower, 0.185
- U26A C54A — lower, 0.655
- U26A C54G — lower, 0.758
- U26A A42U — higher, 0.863
- C24U U64G — lower, 0.466
- G25A G56A — lower, 0.154
- G25A G56C — lower, 0.213
- G25U C32A — lower, 0.162
- G25U C32U — lower, 0.228
- G25C U67C — lower, 0.115
- G25U C39A — lower, 0.137
- G25C A60U — lower, 0.114
- G25U G28U — lower, 0.145
- C24U U36C — lower, 0.37
- C24U U36A — lower, 0.181
- G25A G30U — lower, 0.209
- U26A A51C — higher, 0.871
- U26A A51G — higher, 0.889
- G25U U36G — lower, 0.155
- G25A U62G — lower, 0.16
- C24U U62G — lower, 0.386
- U26A C29U — lower, 0.36
- U26A C29A — lower, 0.46
- G25A C63G — lower, 0.185
- G25A C63A — lower, 0.104
- G25A A51C — lower, 0.209
- G25C U69A — lower, 0.221
- G25C U69G — lower, 0.309
- G25C C63A — lower, 0.235
- G25C C63G — lower, 0.176
- G25U C34A — lower, 0.153
- G25A U44C — lower, 0.0881
- U26A A40U — lower, 0.531
- U26A C34A — lower, 0.436
- G25U A60U — lower, 0.13
- G25U A60C — lower, 0.132
- G25U A60G — lower, 0.229
- U26A C27A — lower, 0.424
- G25A A40G — lower, 0.172
- G25A G50U — lower, 0.267
- G25A G50A — lower, 0.195
- G25A G50C — lower, 0.28
- G25U G65U — lower, 0.187
- G25U G65A — lower, 0.184
- G25C C32U — lower, 0.179
- G25U U26G — lower, 0.0885
- G25A G41A — lower, 0.174
- G25U G56A — lower, 0.171
- G25U G56C — lower, 0.158
- G25U G56U — lower, 0.134
- C24U U67A — higher, 0.862
- G25U G41C — lower, 0.103
- G25U G41U — lower, 0.173
- C24U U26C — lower, 0.626
- C24U U26G — lower, 0.448
- C24U U26A — lower, 0.257
- G25A C34G — lower, 0.19
- U26A A59C — lower, 0.322
- G25A C45G — lower, 0.142
- G25A C45U — lower, 0.132
- G25A C66G — lower, 0.223
- G25A G65C — lower, 0.178
- G25A G65U — lower, 0.134
- G25U U69A — lower, 0.136
- G25A U26A — lower, 0.186
- G25U U49A — lower, 0.12
- G25A U67A — lower, 0.21
- G25U A59G — lower, 0.174
- G25U U61A — lower, 0.175
- G25U U61C — lower, 0.179
- G25U C27U — lower, 0.164
- G25U C27A — lower, 0.213
- G25C C33G — lower, 0.235
- G25U G30U — lower, 0.162
- G25C A51U — lower, 0.152
- G25U U55C — lower, 0.229
- G25A U61A — lower, 0.173
- U26A C57A — lower, 0.355
- G25A U69G — lower, 0.327
- G25C C45A — lower, 0.204
- G25C G41U — lower, 0.144
- G25A G48C — lower, 0.218
- G25C C35G — lower, 0.124
- U26A A60C — lower, 0.285
- G25A G47U — lower, 0.198
- G25A G47C — lower, 0.217
- G25U U43C — lower, 0.122
- G25U U43G — lower, 0.148
- G25U U43A — lower, 0.0919
- C24U U53A — lower, 0.64
- C24U U53G — lower, 0.482
- G25C C34U — lower, 0.219
- C24U U38G — lower, 0.166
- G25A A60C — lower, 0.142
- G25C G31A — lower, 0.217
- G25C U36C — lower, 0.24
- G25C U36A — lower, 0.201
- G25A G28A — lower, 0.131
- G25A G28U — lower, 0.132
- G25C G58U — lower, 0.134
- G25C G58A — lower, 0.212
- G25C U44C — lower, 0.144
- G25C U44G — lower, 0.139
- G25U U38C — lower, 0.13
- G25U U38A — lower, 0.168
- G25U G47A — lower, 0.188
- G25U G47U — lower, 0.148
- U26A C35G — lower, 0.207
- C24U G68A — higher, 0.919
- G25U C35U — lower, 0.139
- U26A C45U — higher, 0.879
- U26A C45A — lower, 0.828
- U26A C45G — higher, 0.895
- G25U G58U — lower, 0.186
- G25U C29U — lower, 0.206
- G25C U64C — lower, 0.181
- G25C U64G — lower, 0.155
- G25U G68A — lower, 0.204
